Data on 23 sequences can be found in the supplement of paper PMC9170038.

The series deals with MS2 coat protein. As to the kind of experiment: apparent KD of MS2 coat protein; designed switch direction (-1 OFF switch, 1 ON switch): -1; higher = weaker reporter binding. Put shortly:
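The apparent KD reported per design is the median over clusters of curve fits to normalised cluster fluorescence. The RNA switches were transcribed on Illumina chips by stalled E. coli RNA polymerase. SNAP-549-labelled MS2 coat protein was titrated from 0.7 or 1.5 nM, doubling up to 3 µM, in Tris-HCl pH 7.5 buffer containing KCl, MgCl2, BSA, DTT, tRNA and Tween-20, with no input, 200 uM small-molecule ligand, or an oligonucleotide input.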

Where [1] appears, read: Eterna round: R95, input ligand: FMN 200 uM.
[2] abbreviates: Eterna round: R95, input ligand: microRNA oligo, concentration not stated.
Setting [3] is: Eterna round: R95, input ligand: none.
[4] abbreviates: input ligand: microRNA oligo, concentration not stated.

As to “CCCGUGUAAGGAUAUCGUUCACUUGGCGAAAGUCGAGUGGACGAGAAGGUACAUGAGGAUCACCCAUGUACGGG [-36.1, -35.7 kcal, A 27%] (Eterna round: R97, puzzle: Exclusion 4)”, the “apparent KD of MS2 coat protein” value runs as follows: (input ligand: FMN 200 uM) 438 nM; (input ligand: none) 305 nM.
In the case of “ACGUAUAGAGGAUAUAGUGAAUAUUACAUGAGGAUCACCCAUGUUCUUCAAAGCAUAUUCCUAGAAGGCUAAUGAA [EX-5 Malc#12] (puzzle: Exclusion 5)”, the “apparent KD of MS2 coat protein” value reads like this: under setting [1], 113 nM; under setting [2], 44.4 nM; under setting [3], 56.4 nM.
Turning to “AAAGGAGUAGGAUAUGAGCCCAAAUACAUGAGGAUCACCCAUGUCGGGUUCAUGGAGGGCUUAGAAGGAUUUAAAA [Onreridi] (Eterna round: R97, puzzle: Exclusion 5)”, the “apparent KD of MS2 coat protein” value by setting is: (input ligand: FMN 200 uM) 25.8 nM; (input ligand: none) 23.1 nM.
Take “GCAGCAUAGAUGAAAAUCUGAUACAUGAGGAUCACCCAUGUACAGGAUAUGGUCUGGAUUACAGGCCAGAAGGGUACAAGCUGC [Eli exng3 - 012] (Eterna round: R96, puzzle: Exclusion NG 3)”: the “apparent KD of MS2 coat protein” value is 15.7 nM (input ligand: FMN 200 uM), 10.4 nM under setting [4] and 12.1 nM (input ligand: none).
As for “CUCAGACAUGAGGAUCACCCAUGUGAGGAUAUGAUGCGAUCGUCGAAAGACGAUAGCAUCAGAAGGCACAAAUG [Fiskers Ex 1 - 24] (puzzle: Exclusion 1)”, the “apparent KD of MS2 coat protein” value under setting [2] amounted to 71.2 nM.
Regarding “ACCCGCACAAGCACCAGAGACAUGAGGAUCACCCAUGUAUAGUCGCACUAGGGUCUCUCUAGUCUAGCCGUUCGUCA [Eternabot (Original) Solution 44] (Eterna round: R97, puzzle: Sensor, turn-off variant 1)”, the “apparent KD of MS2 coat protein” value reads like this: (input ligand: FMN 200 uM) 90.4 nM; (input ligand: none) 213 nM.
With “UUAAUUACGGUGCUUUAACCUCACAUGAGGAUCACCCAUGUGCAGGAUAUCAGCUCGUGUAGAGCUGAGAAGGGCACUGCACCG [ExNG3/11-A3] (Eterna round: R96, puzzle: Exclusion NG 3)”, the “apparent KD of MS2 coat protein” value came to 14 nM (input ligand: FMN 200 uM), 8.05 nM under setting [4] and 12.1 nM (input ligand: none).
In the case of “CUGGUCCGAGGAUAUAUAUUGUGAUACAUGAGGAUCACCCAUGUAAUAAUAUGGAUAUAAAUAGAAGGCGGACUAG [Mat - Exclusion 5 - JL mod - D49] (puzzle: Exclusion 5)”, the “apparent KD of MS2 coat protein” value runs as follows: under setting [1], 35.8 nM; under setting [2], 23 nM; under setting [3], 27.7 nM.
For the sequence “AUUUACAAGCUAAGAUCCUACAUGAGGAUCACCCAUGUGGUCCGGUGACGUGAGUCACCGGACUUAGCUCGUCUUGA [salish99_S_TOV1_R5_082] (Eterna round: R97, puzzle: Sensor, turn-off variant 1)”, the “apparent KD of MS2 coat protein” value runs as follows: (input ligand: FMN 200 uM) 32.9 nM; (input ligand: none) 36.8 nM.
The like results for “UCGAUGUGAGGAUAUAACAGGACGAACUCUUAAUAGUACGGUUAGAAGGCACAUGAGGAUCACCCAUGUGACGA [EX4 B.27] (Eterna round: R97, puzzle: Exclusion 4)” were, in that order, 40.1 nM and 17.7 nM.
Take “AAGUACCGUCACGAAAGUGAUGGUACAGCAAGUAAAUGUACAUGAGGAUCACCCAUGUCCUCAAUUGCUCGUCUUAU [Sensor 3 - 59] (puzzle: Sensor v3, turn-off variant 2)”: the “apparent KD of MS2 coat protein” value reads like this: under setting [1], 185 nM; under setting [2], 173 nM; under setting [3], 212 nM.
“UUUUACAAGCUAAGAUCCUACAUGAGGAUCACCCAUGUGGUCCGGUGACGUGAGUCACCGGACUUAGCUCGUCUUGA [salish99_S_TOV1_R5_085] (Eterna round: R97, puzzle: Sensor, turn-off variant 1)”: the “apparent KD of MS2 coat protein” value amounted to 38.9 nM (input ligand: FMN 200 uM) and 40.4 nM (input ligand: none).
With “GGUACUAACACGGAAGUGUUAGUACUAUAAGCUUGUGUUACAUGAGGAUCACCCAUGUCCUCAUAAGCUCGUCUUAU [Mat - Sensor v3 - Turn-off var 2 - D75] (puzzle: Sensor v3, turn-off variant 2)”, the “apparent KD of MS2 coat protein” value under setting [1] is 93.5 nM, the “apparent KD of MS2 coat protein” value under setting [2] is 38.1 nM and the “apparent KD of MS2 coat protein” value under setting [3] was 90.7 nM.
Regarding “UCGCUGCGAGGAUAUACAUGAGGAUCACCCAUGUGCGGGUCCGGGUCUUCGUCCAUUAGUAGAAGGCGCAGUGA [JL Laongeedie mod 4] (puzzle: Exclusion 3)”, under setting [2], the “apparent KD of MS2 coat protein” value came to 99.9 nM.
Turning to “GGAAGAGAGUUAGGAUAUAUAAGAAGAAUGUGGGUAGAAGGAACGAAACAUGAGGAUCACCCAUGUCCCAUGUUGAGGAGGAGG (Eterna round: R96, puzzle: Exclusion NG 1)”, the “apparent KD of MS2 coat protein” value (input ligand: FMN 200 uM) worked out at 1530 nM, the “apparent KD of MS2 coat protein” value under setting [4] worked out at 349 nM and the “apparent KD of MS2 coat protein” value (input ligand: none) is 560 nM.
On to “AAGAUGCGGAUAGGAUAUGGAAAGAAGGAAAGACCAGAAGGAUUGGUCAUAUAACAUGAGGAUCACCCAUGUAUAUGUUGUGAA [AK ExNG1-3.1] (Eterna round: R96, puzzle: Exclusion NG 1)”, for which the “apparent KD of MS2 coat protein” value under setting [4] came out at 13 nM.
Consider “UCCGUGUGAGGAUAUGCGAAUGACGAGUUACCUUGUCGCAAGCAGAAGGUACAUGAGGAUCACCCAUGUCCUAU [Eternabot (L1) Solution 61] (Eterna round: R97, puzzle: Exclusion 4)”, for which the “apparent KD of MS2 coat protein” value runs as follows: (input ligand: FMN 200 uM) 27.8 nM; (input ligand: none) 20.4 nM.
The like results for “CUAGAGUGAGGAUAUACGAGAUCGAAAGAUCGGCGAUCCCUACAUGAGGAUCACCCAUGUAGAAGGCACUCUAG [Mod 12 - Jieux - Exclusion 2] (Eterna round: R97, puzzle: Exclusion 2)” were, in that order, 115 nM and 16 nM.
For “AAGAAACAUGAGGAUCACCCAUGUGAGGAUAUGAAAAAGAAAAGAAAAGAAAGAAGCAUCAGAAGGCACAAAGG [salish99-ex1_r3_026] (puzzle: Exclusion 1)”, the “apparent KD of MS2 coat protein” value is, setting by setting: under setting [1], 36.1 nM; under setting [2], 32.1 nM; under setting [3], 31.1 nM.
“ACACUUGAACAUGAGGAUCACCCAUGUGUUUUUCUGGUUCGGCAGGAUAUCGUCUAACGCCAGGGCGAGAAGGGCCAAUAAAAG [Inlale] (Eterna round: R96, puzzle: Exclusion NG 3)”: the “apparent KD of MS2 coat protein” value (input ligand: FMN 200 uM) is 26 nM, the “apparent KD of MS2 coat protein” value under setting [4] worked out at 29.4 nM and the “apparent KD of MS2 coat protein” value (input ligand: none) was determined as 37 nM.
“GAUUAUGCGAGCUUUAGGGACAUGAGGAUCACCCAUGUUCGUCUUAUUAGUCUAGGUGCACUAACAUACCUAAAUCU [JMF 35] (puzzle: Sensor v3, turn-off variant 1)”: the “apparent KD of MS2 coat protein” value by setting is: under setting [1], 20.7 nM; under setting [2], 36 nM; under setting [3], 21.3 nM.
Consider “AGUUAUUCAGGAUAUGGUGUGUUAUACAUGAGGAUCACCCAUGUGGAUCCUGGUUAGGCCUCAGAAGGGAAUGUUA [salish99_ex5_r4_126] (Eterna round: R97, puzzle: Exclusion 5)”, for which the “apparent KD of MS2 coat protein” value reads like this: (input ligand: FMN 200 uM) 412 nM; (input ligand: none) 435 nM.
“CUGAGCUGAGGAUAUACAUGAGGAUCACCCAUGUGUUGGAGCUUGCGUACAGGCAGAUGUAGAAGGCAGUUCGG [JL-ex3-3.32 Brourd mod] (puzzle: Exclusion 3)”: under setting [2], the “apparent KD of MS2 coat protein” value was 19.5 nM.
